Data set [1] can be described thus: Pi release from G6P in HeLa lysates, 24 h. The settings on record: glycan lost; control: wild type.
A short description of data set [2]: Western blot, total hG6Pase-α in HeLa lysates, 24 h. The settings on record: glycan lost; control: wild type. Background: Immunoblotting shows a protein as a band on a membrane.

B1: human glucose-6-phosphatase-α (hG6Pase-α): N96A (protein)
parent chain: MEEGMNVLHDFGIQSTHYLQVNYQDSQDWFILVSVIADLRNAFYVLFPIWFHLQEAVGIKLLWVAVIGDWLNLVFKWILFGQRPYWWVLDTDYYSNTSVPLIKQFPVTCETGPGSPSGHAMGTAGVYYVMVTSTLSIFQGKIKPTYRFRCLNVILWLGFWAVQLNVCLSRIYLAAHFPHQVVAGVLSGIAVAETFSHIHSIYNASLKKYFLITFFLFSFAIGFYLLLKGLGVDLLWTLEKAQRWCEQPEWVHIDTTPFASLLKNLGTLFGLGLALNSSMYRESCKGKLSKWLPFRLSSIVASLVLLHVFDSLKPPSQVELVFYVLSFCKSAVVPLASVSVIPYCLAQVLGQPHKKSL
Take B1: the “enzymatic_activity, percent_of_wt” value in data set [1] was “abolishes, 0.9 ± 0.8 vs 100 ± 21.6”. The “expression_or_secretion, percent_of_wt” value in data set [2] is given as “no change, 109.0 ± 16.9 vs 100.0 ± 8.2”.

Values taken from publication PMC10247848.
